Where a chain is given by its changes, count along the chain named.
Tests used:
[1] = target: T1, human CD84 on the cell surface (human, UniProt Q9UIB8 22-345); assay: flow cytometry, control on NS0 cells expressing human CD84
T1 construct: whole, on cells; also called Cluster of Differentiation 84
T1 sequence (looked up): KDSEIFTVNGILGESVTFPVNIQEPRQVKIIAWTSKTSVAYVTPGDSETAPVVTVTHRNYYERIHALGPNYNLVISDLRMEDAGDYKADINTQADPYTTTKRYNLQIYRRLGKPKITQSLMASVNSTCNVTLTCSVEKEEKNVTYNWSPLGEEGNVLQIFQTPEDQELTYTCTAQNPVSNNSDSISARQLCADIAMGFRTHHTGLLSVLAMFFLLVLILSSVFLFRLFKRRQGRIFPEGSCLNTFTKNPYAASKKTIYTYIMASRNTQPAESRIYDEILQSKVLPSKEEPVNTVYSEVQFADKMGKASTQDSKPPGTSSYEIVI

[2] = target: T1, human CD84 on the cell surface; assay: flow cytometry, hybridoma supernatant on NS0 cells expressing human CD84
Description: Hybridoma clones selected from ELISA screening were subjected to flow cytometric analyses with NSO, a mouse myeloma cell line (ECACC), expressing human CD84 via lentiviral transduction. Half a million of transduced cells were incubated with 100 mL of hybridoma culture supernatants on ice for 30 min and washed with cold PBS containing 1% fetal bovine serum and 0.1% sodium azide.

Ctrl was tested, and the Geometric Mean [1] was 88.

B1: anti-CD84 hybridoma clone 4B11 (antibody, V domains shown)
VH: EVKLVESGGGLVQPGGSLRLSCATSGFTFSDFYMDWVRQPPGKRLEWIATSRNKANDYTTEYSASVRGRFIVSRDTSQSILYLQMNALRAEDTAIYYCARDAVWEPFAYWGQGTLVTVSA
VL: EIVLTQSPTTMAASPGEKITVTCSANSSISSNSLHWYQQKPGFSPKLLIYRTSNLASGVPARFSGSGSGTSYFLTIGTMEAEDVATYYCQQGTSIPRTFGGGTKLEIK
In the case of B1, the “Geometric Mean” value [2] is reported as 1100.

B2: anti-CD84 hybridoma clone 13D11 (antibody, V domains shown)
VH: QVTLKESGPGLLQPSQTLSLTCSFSGFSLNTSNMGVGWIRQPSGKDLEWLAHIWWDDVKRYNPALKSRLTISKDTSNNQVFLKIASVDTADTATYYCARMRGDYTMDYWGQGTSVTVSS
VL: DIVLTQSPASLAVSLGQRATLSCRASQSVSTSLYSYMHWYQQKPGQPPKLLIKYASDLESGVPARFSGSGSGTDFTLHIHPVEEEDTATYYCQHSWEIPYTFGGGTKLEIK
B2 was tested, and the “Geometric Mean” value [2] was 2120.

B3: anti-CD84 hybridoma clone 8A5 (antibody, V domains shown)
VH: QIQLVQSGPELKKPGETVKISCKASGYTFTTYSMHWVKQAPGKGLKWMGWIDTATGEPTYADDFKGRFAFSLETSASTAYLQINNLNNDDTATYFCVKSAYWYFDVWGAGTTVTVSS
VL: DVLMTQTPLSLPVSLGDQASISCRSSQSIVHINGNTYLEWYLQKPGQSPKLLIYKVSNRFSGVPDRFSGSGSGTDFTLKISRVEAEDLGVYYCFQGSHVPWTFGGGTKLEIK
For B3, the “Geometric Mean” value [2] was 1810.

B4: anti-CD84 hybridoma clone 5C6 (antibody, V domains shown)
VH: QVHLQQSGAELVRPGTSVKISCKASGYTFTNYWLGWVKQRPGHGLEWIGDIFPGGGYINYHEKFKGKATLTADTSSSTAYMQLSSLTSEDSAVYFCGYGNIAMDYWGQGTSVTVSS
VL: QIILTQTPAIMSASPGEKVTMTCSASSSVSYVHWYQQKSGTSPKRWIYDTSKLASGVPARFSGSGSGTSYSLTISTMEAEDAATYYCQQWNNSPRTFGGGTKLEIK
In the case of B4, the “Geometric Mean” value [2] is reported as 1690.

B5: anti-CD84 hybridoma clone 7D2 (antibody, V domains shown)
VH: B4 VH with G97A, I101V
VL: B4 VL with M21V
With B5 the “Geometric Mean” value [2] was 2260.

B6: anti-CD84 hybridoma clone 2H7 (antibody, V domains shown)
VH: DVQLQESGPGLVKPSQSLSLTCTVTGYSITSDYAWNWIRQFPGNKLEWMGYISYSGTTSYNPSLKSRISITRDTSKNQFFLQLNSVTTEDTATYYCASLHYYGSRYKKLYAMDYWGQGTLATVSS
VL: NIVMTQSPKSMSMSVGERVTLSCKASDNVGTYVSWYQQKPEQSPKLLIYGASNRYTGVPDRFTGSGSATDFTLTISSVQAEDLADYHCGQSYSYPTFGGGTKLEIK
With B6 the “Geometric Mean” value [2] was 1550.
